Laboratory results taken from patent US20250382344A1, “Soluble GLP1/GIP/NPY2 Receptor Triple Agonists” (Boehringer Ingelheim International GmH, priority 2024, published 2025).
Like-named read-outs stand apart in the source and are kept apart here. *1 amine or outer side, *2 acyl side, *3 side chain or, on linkers, in order; H or OH if unused. Where no end group is shown, it is not given here. Side-chain parts run from the residue outwards. [ ]: non-standard residue; d: D form. The star is where a group is joined. C20 diacid = O=C(O)CCCCCCCCCCCCCCCCCCC(=O)*; C18 diacid = O=C(O)CCCCCCCCCCCCCCCCC(=O)*; γGlu = O=C(O)[C@H](CCC(=O)[*:2])N[*:1]; εLys = N[C@@H](CCCCN[*:1])C(=O)[*:2]; dOR = not defined here; Aib = CC(C)(N)C(=O)O

T1: hNPY2R (Homo sapiens, UniProt P49146)
T1 construct: expressed in transfected cells; host or cells: HEK-293 CRE-luciferase reporter cells
T1 sequence (P49146 1-381): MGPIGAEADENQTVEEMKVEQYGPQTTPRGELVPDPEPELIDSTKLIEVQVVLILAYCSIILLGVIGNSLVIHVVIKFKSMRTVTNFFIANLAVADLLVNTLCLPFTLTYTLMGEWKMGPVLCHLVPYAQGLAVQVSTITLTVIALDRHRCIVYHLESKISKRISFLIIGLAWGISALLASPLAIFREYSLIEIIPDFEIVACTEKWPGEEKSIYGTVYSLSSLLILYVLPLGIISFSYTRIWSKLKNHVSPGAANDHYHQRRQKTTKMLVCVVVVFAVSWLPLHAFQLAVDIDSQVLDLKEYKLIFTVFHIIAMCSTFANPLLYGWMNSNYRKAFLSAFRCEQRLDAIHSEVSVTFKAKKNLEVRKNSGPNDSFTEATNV

T2: hGIPR (Homo sapiens, UniProt P48546)
T2 construct: expressed in transfected cells; host or cells: CHO CRE-luciferase reporter cells
T2 sequence (P48546 22-466): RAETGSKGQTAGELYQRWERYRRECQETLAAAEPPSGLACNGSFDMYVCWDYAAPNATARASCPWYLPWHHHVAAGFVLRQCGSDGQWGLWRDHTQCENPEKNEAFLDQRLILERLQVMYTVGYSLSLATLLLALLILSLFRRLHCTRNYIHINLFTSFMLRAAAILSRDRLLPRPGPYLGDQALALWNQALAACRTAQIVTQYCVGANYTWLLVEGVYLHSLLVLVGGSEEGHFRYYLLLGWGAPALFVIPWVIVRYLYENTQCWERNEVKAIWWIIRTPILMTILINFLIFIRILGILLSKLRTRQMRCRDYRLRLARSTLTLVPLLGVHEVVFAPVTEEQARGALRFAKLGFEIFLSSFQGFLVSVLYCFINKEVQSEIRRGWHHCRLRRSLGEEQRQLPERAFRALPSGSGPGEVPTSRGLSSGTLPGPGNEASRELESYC

T3: human GIP receptor (human, UniProt P48546 22-466)
T3 sequence (looked up): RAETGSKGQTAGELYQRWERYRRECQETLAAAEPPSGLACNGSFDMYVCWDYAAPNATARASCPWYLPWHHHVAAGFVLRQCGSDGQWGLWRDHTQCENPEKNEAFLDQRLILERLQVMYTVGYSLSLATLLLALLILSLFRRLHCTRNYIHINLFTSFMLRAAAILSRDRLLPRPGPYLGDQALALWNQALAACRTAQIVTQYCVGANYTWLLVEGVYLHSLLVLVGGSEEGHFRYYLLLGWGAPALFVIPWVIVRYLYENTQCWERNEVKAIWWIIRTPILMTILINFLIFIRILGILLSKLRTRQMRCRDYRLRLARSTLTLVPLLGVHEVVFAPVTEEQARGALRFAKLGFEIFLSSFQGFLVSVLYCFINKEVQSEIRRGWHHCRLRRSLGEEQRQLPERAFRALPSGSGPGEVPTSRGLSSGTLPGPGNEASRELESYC

T4: human neuropeptide Y2 receptor (human, UniProt P49146 1-381)
T4 sequence (looked up): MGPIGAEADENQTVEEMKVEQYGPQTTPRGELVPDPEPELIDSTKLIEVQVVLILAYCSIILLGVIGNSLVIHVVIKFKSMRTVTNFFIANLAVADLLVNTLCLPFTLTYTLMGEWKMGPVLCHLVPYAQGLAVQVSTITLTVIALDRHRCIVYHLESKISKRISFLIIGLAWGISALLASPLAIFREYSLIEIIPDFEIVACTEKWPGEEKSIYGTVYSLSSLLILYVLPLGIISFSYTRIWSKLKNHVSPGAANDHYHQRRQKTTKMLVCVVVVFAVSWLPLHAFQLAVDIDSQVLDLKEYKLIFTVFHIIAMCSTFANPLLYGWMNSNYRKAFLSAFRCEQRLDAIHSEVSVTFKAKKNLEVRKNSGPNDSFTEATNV


Columns and labels:
[1] = target: T1, hNPY2R; test: hNPY2R CreLuc assay in 0.5% and 100% plasma (HEK-293 CRE-luciferase reporter cells); type: cell-based; details: HEK-293 reporter cells
Source text: CHO and HEK-293 recombinant cell lines express a luciferase reporter gene under control of the CAMP responsive element (CRE). As a second recombinant protein the GLP-1 and NPY2 receptors were expressed in the reporter gene HEK cells, and the GIP receptor was expressed in the reporter gene CHO cells, respectively. Stimulation of these recombinant cells with an agonist leads to an increase of intracellular CAMP levels. In the presence of CAMP, the transcription factor CRE binding protein (CREB) binds to the CRE and to the CREB binding protein (CBP), which leads to transcription of the luciferase reporter gene. Peptides upon serial-dilution in 100% DMSO were transferred into 384-well assay plates with 5 μl pre-dispensed assay buffer (1×HBSS, 20 mM HEPES, pH7.4 supplemented with 0.5% human plasma) using acoustic dispensing on a Labcyte ECHO. Cryo-preserved transgenic reporter gene cells were thawed in assay buffer. 20 μl (10.000 cells/well) were added to the plate with the peptides and incubated for 4 hours at 37° C. in a humidified incubator. Following incubation, assay plates are equilibrated to room temperature, followed by addition of 25 μl of Bright-Glo™ Luciferase reagent, incubation at room temperature for 10 minutes and analysis of luminescence (Envision Reader). […] EC50 values were calculated by non-linear regression using sigmoid concentration-response with variable slope.
The same assays were run in the presence of 100% plasma with no additional buffer constituents.

[2] = Solubility in 0.1 M phosphate buffer at pH 7; type: physicochemical; details: 0.1 M phosphate buffer at pH 7, 10 mg/mL final peptide concentration, shaking 2 hours at room temperature, peptides as TFA-salts; measured sample pH 6.5-7.0
[3] = target: T2, hGIPR; test: hGIPR CreLuc assay in 0.5% and 100% plasma (CHO CRE-luciferase reporter cells); type: cell-based; details: 0.5% human plasma, read-out: hGIPR 0.5% hP
[4] = target: T3, human GIP receptor; test: cell-based or functional assay
[5] = target: T4, human neuropeptide Y2 receptor; test: cell-based or functional assay
[6] = target: human GLP-1 receptor (human, UniProt P43220 24-463); test: cell-based or functional assay

Molecule | EC50 ([1]; hNPY2R 100% hP (nM), 100% human plasma) | solubility at 2 h [2] | EC50 ([1]; 0.5% human plasma, read-out: hNPY2R 0.5% hP) | EC50 [3] | EC50, CreLuc reporter, 0.5% hP [4] | EC50, CreLuc reporter, 0.5% hP [5] | EC50, CreLuc reporter, 100% hP [5] | EC50, CreLuc reporter, 0.5% hP [6] | EC50, CreLuc reporter, 100% hP [4] | EC50, CreLuc reporter, 100% hP [6]
CC[C@H](C)[C@H](NC(=O)[C@H](CO)NC(=O)[C@H](Cc1ccc(O)cc1)NC(=O)[C@H](CC(=O)O)NC(=O)[C@H](CO)NC(=O)[C@@H](NC(=O)[C@H](Cc1ccccc1)NC(=O)[C@@H](NC(=O)CNC(=O)[C@H](CCC(=O)O)NC(=O)C(C)(C)NC(=O)[C@@H](N)Cc1ccc(O)cc1)[C@@H](C)O)[C@@H](C)O)C(=O)NC(C)(C)C(=O)N[C@@H](CC(C)C)C(=O)N[C@@H](CCC(=O)O)C(=O)N[C@@H](CCCCN)C(=O)N[C@@H](CCC(N)=O)C(=O)N[C@@H](C)C(=O)N[C@@H](CCC(N)=O)C(=O)NC(C)(C)C(=O)N[C@@H](C)C(=O)N[C@@H](Cc1ccccc1)C(=O)N[C@H](C(=O)N[C@@H](CCCNC(=N)N)C(=O)N[C@@H](Cc1c[nH]cn1)C(=O)N[C@@H](CC(C)C)C(=O)N[C@@H](Cc1ccc(O)cc1)C(=O)N[C@@H](CC(N)=O)C(=O)N[C@@H](CCCCNC(=O)[C@@H](N)CCCCNC(=O)CC[C@H](NC(=O)CC[C@H](NC(=O)CC[C@H](NC(=O)CC[C@H](NC(=O)CC[C@H](NC(=O)CC[C@H](NC(=O)CCCCCCCCCCCCCCCCC(=O)O)C(=O)O)C(=O)O)C(=O)O)C(=O)O)C(=O)O)C(=O)O)C(=O)NC(C)(C)C(=O)N[C@H](C(=O)N[C@@H](CCCNC(=N)N)C(=O)N[C@@H](CCC(N)=O)C(=O)N[C@@H](CCCNC(=N)N)C(=O)N[C@@H](Cc1ccc(O)cc1)C(N)=O)[C@@H](C)O)C(C)C [Compound 58, Y-Aib-E-G-T-F-T-S-D-Y-S-I-Aib-L-E-K-Q-A-Q-Aib-A-F-V-R-H-L-Y-N-K(1,3)-Aib-T-R-Q-R-Y-NH2.C18DA-gGlu-gGlu-gGlu-gGlu-gGlu-gGlu-eLys(1,2)] | 40 nM | 3300 µg/mL |  |  |  |  |  |  |  | 
CC[C@H](C)[C@H](NC(=O)[C@H](CC(C)C)NC(=O)[C@H](Cc1c[nH]cn1)NC(=O)[C@H](CCCNC(=N)N)NC(=O)[C@@H](NC(=O)[C@H](Cc1ccccc1)NC(=O)[C@H](C)NC(=O)C(C)(C)NC(=O)[C@H](CCC(N)=O)NC(=O)[C@H](C)NC(=O)[C@H](CCC(N)=O)NC(=O)[C@H](CCCNC(=N)N)NC(=O)[C@H](CCC(=O)O)NC(=O)[C@H](CC(C)C)NC(=O)C(C)(C)NC(=O)[C@@H](NC(=O)[C@H](CO)NC(=O)[C@H](Cc1ccc(O)cc1)NC(=O)[C@H](CC(=O)O)NC(=O)[C@H](CO)NC(=O)[C@@H](NC(=O)[C@H](Cc1ccccc1)NC(=O)[C@@H](NC(=O)CNC(=O)[C@H](CCC(=O)O)NC(=O)C(C)(C)NC(=O)[C@@H](N)Cc1ccc(O)cc1)[C@@H](C)O)[C@@H](C)O)[C@@H](C)CC)C(C)C)C(=O)N[C@@H](CC(N)=O)C(=O)N[C@@H](CCCCNC(=O)[C@@H](N)CCCCNC(=O)CC[C@H](NC(=O)CC[C@H](NC(=O)CC[C@H](NC(=O)CC[C@H](NC(=O)CC[C@H](NC(=O)CC[C@H](NC(=O)CCCCCCCCCCCCCCCCCCC(=O)O)C(=O)O)C(=O)O)C(=O)O)C(=O)O)C(=O)O)C(=O)O)C(=O)NC(C)(C)C(=O)N[C@H](C(=O)N[C@@H](CCCNC(=N)N)C(=O)N[C@@H](CCC(N)=O)C(=O)N[C@@H](CCCNC(=N)N)C(=O)N[C@@H](Cc1ccc(O)cc1)C(N)=O)[C@@H](C)O [Compound 171, Y-Aib-E-G-T-F-T-S-D-Y-S-I-Aib-L-E-R-Q-A-Q-Aib-A-F-V-R-H-L-I-N-K(1,3)-Aib-T-R-Q-R-Y-NH2.C20DA-gGlu-gGlu-gGlu-gGlu-gGlu-gGlu-eLys(1,2)] |  |  | 9.9 nM | 0.4 nM |  |  |  |  |  | 
Y[Aib]EGTFTSDYSI[Aib]LEKQAQ[Aib]AFVRHLINK([γGlu-γGlu-γGlu-γGlu-γGlu-γGlu-C18 diacid])LTRQRY-NH2 [Compound 12] |  |  |  |  | 0.8 nM | 47.6 nM | 140 nM | 1.8 nM |  | 
Y[Aib]EGTFTSDYSI[Aib]LDKQAQ[Aib]AFVRHLINK([εLys-γGlu-γGlu-γGlu-γGlu-γGlu-γGlu-γGlu-C20 diacid])[Aib]TRQ[dOR]Y-NH2 (reading uncertain) [Compound 16] |  |  |  |  | 0.5 nM |  | 59.1 nM | 0.7 nM | 2 nM | 1.8 nM
YXEGTFTSDYSIXLEKQAQXAFVRHLIAKXTRQRY (Aib at 2, 13, 20, 30; Lys29 epsilon-amino acylated with C18DA-gGlu-gGlu-gGlu-gGlu-gGlu-gGlu-eLys; C-terminal amide) [Compound 68] |  |  |  |  | 0.2 nM | 150 nM | 690 nM | 0.6 nM | 3 nM | 3.3 nM
YXEGTFTSDYSIXLDKQAQXAFIRHLINKXTRQRY (Aib at 2, 13, 20, 30; Lys29 epsilon-amino acylated with C20DA-gGlu-gGlu-gGlu-gGlu-gGlu-gGlu-eLys; C-terminal amide) [Compound 81] |  |  |  |  | 0.5 nM | 7.2 nM | 52.4 nM | 0.6 nM |  | 3.8 nM
YXEGTFTSDYSIXLEKQAQXEFVRHLINKXTRQRY (Aib at 2, 13, 20, 30; Lys29 epsilon-amino acylated with C18DA-gGlu-gGlu-gGlu-gGlu-gGlu-AHX; C-terminal amide) [Compound 14] |  |  |  |  | 0.1 nM | 16.8 nM | 388 nM | 0.3 nM |  | 
YXEGTFTSDYSIXLDKQAQXAFVRHLINKXTRQRY (Aib at 2, 13, 20, 30; Lys29 epsilon-amino acylated with C20DA-gGlu-gGlu-gGlu-gGlu-gGlu-gGlu-eLys; C-terminal amide) [Compound 74] |  |  |  |  | 0.5 nM | 7.1 nM | 90.6 nM | 0.4 nM |  | 3.3 nM
